{"source": "paper PMC3672285", "about": "(RNA Biology, 2013)", "binders": {"B1": {"name": "His-tagged Rrp4 of S. solfataricus (natural protein, UniProt Q9UXC4 1-249, looked up)", "chain": "MNMSQSQKIVLQPRSIVVPGELLAEGEFQIPWSPYILKINSKYYSTVVGLFDVKDTQFEVIPLEGSFYYPKINDIVIGLVEDVEIYGWVVDIKAPYKAYLPASNLLGRSINVGEDLRRYLDVGDYVIARIENFDRSIDPVLSVKGKDLGRVSNGIVIDIMPVKVPRVIGKNKSMYETLTSKSGCSIFVANNGRIWATCPSRFSEEILIEAIRKIENESHIKGLTDRIKQFIEEKLGERNASSGETKTNS"}, "B2": {"name": "His-tagged Csl4 of S. solfataricus (natural protein, UniProt Q980J9 1-189, looked up)", "chain": "MRTQGELTLPGEELAVIEEFMTGDGTYEQNGIVRAAVVGKIFYDMLNRKSNVLGFKKIIFQHLKKAKYVIGIVNSIKEDSALVSIVGIEERGLASPISAYLHISQISNKKINNVTDAIKIGDVIKAKLLSYTFPLALTIKMKDLGVIYARCSRCGYLLIKQDENNLKCQRCGNIEQRKIGSYMVKKGGN"}, "B3": {"name": "Strep-tagged Csl4 of S. solfataricus (natural protein, UniProt Q980J9 1-189, looked up)", "chain": "B2 chain"}, "B4": {"name": "His-tagged Rrp41 of S. solfataricus (natural protein, UniProt Q9UXC2 1-248, looked up)", "chain": "MREMLQVERPKLILDDGKRTDGRKPDELRSIKIELGVLKNADGSAIFEMGNTKAIAAVYGPKEMHPRHLSLPDRAVLRVRYHMTPFSTDERKNPAPSRREIELSKVIREALESAVLVELFPRTAIDVFTEILQADAGSRLVSLMAASLALADAGIPMRDLIAGVAVGKADGVIILDLNETEDMWGEADMPIAMMPSLNQVTLFQLNGSMTPDEFRQAFDLAVKGINIIYNLEREALKSKYVEFKEEGV"}, "B5": {"name": "His-tagged DnaG of S. solfataricus (natural protein, UniProt P95980 1-406, looked up)", "chain": "MSFQMKYDIRLRFEVEGIVEKTDVIGAIFGQTENLFGDEFDLRELQDKGRLGRIIVEVKTKGGKSEGEIIIPSNLDRIETALIAAMVESVDKVGPYNSKFELIEIEDIRAEKLKKIIERAKGILSSWSKEKSLDIKEVINEISSAVKVGEITEYGPERLPAGPDVDKDPNLIIVEGRADVINLLRYGYKNVIAVEGATSRIPETLINLSKMKKTVIAFLDGDHGGDLILKELLSNNVKIDFVARAPIGREVEELTGKEIAKALSNMMPLTQYLKKVQEAEQAIAKNVIAKEEKPIQSETTQQVVQITLPQNILEEIKKLPGTLEGVLYDNNWNLIEKVQVRDIIPKLEAYEDNKVAYIIFDGVITQRLLDLASQKNIKMIIGARIGGINKRPQNVDILTFTDIISS"}}, "key": {"[1]": {"target": "T1, Rrp41-Rrp42 hexamer, His-tagged subunits (S. solfataricus, UniProt Q9UXC2 1-248; Q9UXC0 1-275)", "T1 sequence (looked up) 1": "B4 chain", "T1 sequence (looked up) 2": "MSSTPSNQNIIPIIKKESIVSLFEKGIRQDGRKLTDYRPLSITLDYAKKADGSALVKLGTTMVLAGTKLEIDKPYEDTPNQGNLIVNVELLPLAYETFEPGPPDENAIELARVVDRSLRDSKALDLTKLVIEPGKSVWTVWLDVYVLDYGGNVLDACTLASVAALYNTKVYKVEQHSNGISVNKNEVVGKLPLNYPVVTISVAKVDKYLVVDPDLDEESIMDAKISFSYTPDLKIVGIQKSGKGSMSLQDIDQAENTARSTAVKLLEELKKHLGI", "test": "co-IP"}, "[2]": {"target": "B1", "test": "pull-down"}, "[3]": {"target": "T2, His-tagged Rrp42 of S. solfataricus (S. solfataricus, UniProt Q9UXC0 1-275)", "T2 sequence (looked up)": "T1 sequence (looked up) 2", "test": "SEC"}, "[4]": {"target": "T3, Strep-Csl4-exosome (Strep-Csl4, His6-Rrp41, His6-Rrp42) (S. solfataricus, UniProt Q9UXC2 1-248; Q9UXC0 1-275; Q980J9 1-189)", "T3 sequence (looked up) 1": "B4 chain", "T3 sequence (looked up) 2": "T1 sequence (looked up) 2", "T3 sequence (looked up) 3": "B2 chain", "test": "pull-down"}}, "data": [{"binder": "B1", "values": [{"measurement": "binding result", "setting": "[1]", "value": "binds"}]}, {"binder": "B2", "values": [{"measurement": "binding result", "setting": "[1]", "value": "binds"}]}, {"binder": "B3", "values": [{"measurement": "binding result", "setting": "[2]", "value": "binds"}]}, {"binder": "B4", "values": [{"measurement": "binding result", "setting": "[3]", "value": "binds"}]}, {"binder": "B5", "values": [{"measurement": "binding result", "setting": "[4]", "value": "binds"}]}]}
